Assay results as given in patent US11414460B2, “KRAS-specific capture agents, compositions, and methods of making and using” (Institute for Systems Biology, priority 2019, dated 2022).
Positions of bridges follow the written chain, without caps; N, C: chain ends. Non-standard residues stand in square brackets, D forms with d. Residues, ends and D or L forms follow the SMILES beside them. Triazole bridges read from a SMILES are 1,4-linked. No end group written: not given here. ξ: configuration not given here. dPhe(4-guanidino) = N=C(N)Nc1ccc(C[C@@H](N)C(=O)O)cc1; Phe(4-guanidino) = N=C(N)Nc1ccc(C[C@H](N)C(=O)O)cc1; ξLys(N3) = [N-]=[N+]=NCCCCC(N)C(=O)O; Aha = [N-]=[N+]=NCC[C@H](N)C(=O)O; Pra = C#CC[C@H](N)C(=O)O

Key:
KRAS (G12D) [1] = molecular target: T1, KRAS (G12D) (Homo sapiens, UniProt P01116, G12D); test: ELISA binding of cyclic peptides to KRAS (G12D); details: absorbance units; for ELISA binding compared with LRGGnf: FIG. 3 and FIG. 4, 5 μM and 20 μM peptide, KRAS (WT) and KRAS (G12D)
Method: FIG. 2 is a graph of a single point ELISA assay comparing the binding (measured in absorbance units, A.U.) of cyclic peptide 7b10 (LRGDGnf; SEQ ID NO:5) and LRGGnf (SEQ ID NO:4) to KRAS (WT) and KRAS (G12D).
(§1) FIG. 3 is a graph of ELISA assays of four peptides (LRGGnf (SEQ ID NO:4), LRG (F—Br) (SEQ ID NO:6), LRGGnf-Az3 (SEQ ID NO:4), and LRGGnf-Az2 (SEQ ID NO:4)) at two different concentrations (5 μM and 20 μM) to KRAS (WT) and KRAS (G12D) comparing the binding (measured in absorbance units, A.U.). […] All of the cyclic peptides show preferential binding to KRAS (G12D) over KRAS (WT).
as §1, with “4” for “3”, “(QDNY” for “(LRGGnf”, “NO:14), QNGnfY” for “NO:4), LRG (F—Br)”, “NO:24), QQGnfGnf” for “NO:6), LRGGnf-Az3”, “NO:3),” for “NO:4),”, “LRGGnf” for “LRGGnf-Az2”

KRAS (G12D) [2] = molecular target: T1, KRAS (G12D); test: EC50 for KRAS (G12D); format: binding
KRAS (WT) = KRAS (WT) (Homo sapiens, UniProt P01116); test: EC50 for KRAS (WT); format: binding

Compound	ELISA binding compared with LRGGnf (KRAS (G12D) [1])	other results
CC(C)C[C@@H]1NC(=O)[C@@H](N)Cc2cn(nn2)CC[C@@H](C(N)=O)NC(=O)[C@H](Cc2ccc(NC(=N)N)cc2)NC(=O)CNC(=O)[C@H](CCCNC(=N)N)NC1=O [LRGGnf-Az2] (H-[Pra]LRG[Phe(4-guanidino)][Aha]-NH2; triazole 1-6; N-terminus and C-terminus assumed)	slightly better	
N=C(N)Nc1ccc(C[C@H]2NC(=O)[C@@H](Cc3ccc(NC(=N)N)cc3)NC(=O)[C@@H](CCC(N)=O)NC(=O)[C@@H](CCC(N)=O)NC(=O)[C@@H](N)Cc3cn(nn3)CCCCC(C(N)=O)NC2=O)cc1 (stereo partly shown) [QQGnfGnf] (H-[Pra][dQ][dQ][dPhe(4-guanidino)][dPhe(4-guanidino)][ξLys(N3)]-NH2; triazole 1-6)		EC50 (KRAS (G12D) [2]): 1 µM; EC50 (KRAS (WT)): 3 µM
LRG (F—Br): cyclic peptide with variable region LRGF-Br (SEQ ID NO:6), F—Br is bromophenylalanine (LRG[bromophenylalanine]; also: cyclic peptide, only variable region given)	noticeable worse	
LRGGnf-Az3: cyclic peptide LRGGnf (SEQ ID NO:4) with azidoornithine (OrnN3 or Az3) (LRG[Phe(4-guanidino)]; also: cyclic peptide, only variable region given, azidoornithine (Az3) modification, position not given here)	comparable to LRGGnf	
LRGGnf: cyclic peptide with variable region LRGGnf (SEQ ID NO:4) (LRG[Phe(4-guanidino)]; also: cyclic peptide, only variable region given)		binding compared to LRGDGnf, single point ELISA (KRAS (G12D) [1]; FIG. 2, single point ELISA to KRAS (WT) and KRAS (G12D)): 5 times
QDNY: cyclic peptide with variable region QDNY (SEQ ID NO:14) (also: cyclic peptide, variable region only, ring closure not given here)	more so	
